Substrate: CCCCCCCCCCCC(=O)Oc1ccc([N+](=O)[O-])cc1
Experiment: purified protein
Assay type: biochemical, Bacillus licheniformis
Details: 0.1-1 mM substrate, standard assay pH 7 phosphate buffer, 35 °C, 0.01% Triton X-100, 0.1% polyvinyl alcohol, DMSO

B1: MLipA (mature LipA lipase of B. licheniformis IBRL-CHS2) (Bacillus licheniformis DSM 13 = ATCC 14580) (protein)
chain: ASHNPVVMVHGIGGADYNFIGIKSYLQSQGWTSSELYAINFIDKTGNNINNAPRLSEYIKRVLNQTGASKVDIVAHSMGGANTLYYIKNLDGADKVGHVVTLGGANRLVTNTAPQNDKISYTSIYSTSDYIVLNSLSKLDGANNVQISGVSHVGLLFSSKVNALIKDGLTASGK
notes: signal peptide (residues 1-30) removed; E. coli BL21 (DE3); IMAC purified
- Km: 360 µM

From paper PMC11651597, “Characterization of a novel subfamily 1.4 lipase from Bacillus licheniformis IBRL-CHS2: Cloning and expression optimization” (PLOS ONE, 2024)
